Experimental data from patent US20250163167A1 (SYNTHEKINE, published 2025).

T1: human IL-10 receptor (hIL-10R alpha and beta chains) on HEK-Blue IL-10 reporter cells (human, UniProt Q13651 22-578; Q08334 20-325)
T1 sequence 1: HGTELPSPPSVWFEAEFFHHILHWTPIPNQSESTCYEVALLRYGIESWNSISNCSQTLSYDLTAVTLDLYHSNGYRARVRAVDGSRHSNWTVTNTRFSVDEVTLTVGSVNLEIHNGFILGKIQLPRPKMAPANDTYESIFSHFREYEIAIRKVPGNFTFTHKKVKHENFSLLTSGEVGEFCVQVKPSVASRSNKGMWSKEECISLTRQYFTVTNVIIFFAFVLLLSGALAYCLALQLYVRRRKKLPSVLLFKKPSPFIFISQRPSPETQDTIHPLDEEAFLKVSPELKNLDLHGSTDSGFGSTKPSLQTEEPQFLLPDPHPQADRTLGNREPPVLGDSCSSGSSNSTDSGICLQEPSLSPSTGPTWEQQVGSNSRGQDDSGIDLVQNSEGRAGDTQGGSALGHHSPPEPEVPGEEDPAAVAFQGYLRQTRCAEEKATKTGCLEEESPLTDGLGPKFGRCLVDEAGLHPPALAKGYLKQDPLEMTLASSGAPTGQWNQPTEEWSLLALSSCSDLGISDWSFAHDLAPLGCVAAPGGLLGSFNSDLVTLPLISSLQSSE
T1 sequence 2: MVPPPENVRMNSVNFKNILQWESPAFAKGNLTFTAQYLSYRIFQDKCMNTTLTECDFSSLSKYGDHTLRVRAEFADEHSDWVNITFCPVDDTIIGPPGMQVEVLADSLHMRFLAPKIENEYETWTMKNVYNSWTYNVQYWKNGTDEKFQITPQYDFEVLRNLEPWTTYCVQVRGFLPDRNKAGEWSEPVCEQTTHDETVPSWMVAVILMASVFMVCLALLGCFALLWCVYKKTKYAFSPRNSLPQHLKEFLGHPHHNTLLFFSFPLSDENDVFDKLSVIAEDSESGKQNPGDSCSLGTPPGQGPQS


biological target: T1, human IL-10 receptor (hIL-10R alpha and …); experiment: cell-based or functional assay

Row | Abs 630 (25 nM) | Abs 630 (100 nM) | Binder
1 | 0.59 Abs 630 | 0.35 Abs 630 | IL10R binding molecule of SEQ ID NO: 305 (bispecific antibody) QVQLQESGGGSVQAGGSLRLSCAASGYTYSSGCMGWFRQAPGKEREAVAAINSDGSTSYADSVKGRFTISKDNAKNTLYLQMNSLKPEDTAMYYCAAEPYCSGGYPRWSVAEFGYWGQGTQVTVSSGGGSQVQLQESGGGSVQAGGSLRLSCAASRYLYSIDYMAWFRQSPGKEREPVAVIYTASGATFYPDSVKGRFTISQDNAKMTVYLQMNSLKSEDTAMYYCAAVRKTDSYLFDAQSFTYWGQGTQVTVSSASHHHHHH
2 | 0.49 Abs 630 | 0.39 Abs 630 | IL10R binding molecule of SEQ ID NO: 260 (bispecific antibody) QVQLQESGGGSVQAGGSLRLSCAASRYLYSIDYMAWFRQSPGKEREPVAVIYTASGATFYPDSVKGRFTISQDNAKMTVYLQMNSLKSEDTAMYYCAAVRKTDSYLFDAQSFTYWGQGTQVTVSSGGGSQVQLQESGGGSVEAGGSLRLSCAASGYTHSSYCMGWFRQAPGKEREGVAAIDVDGSTTYADSVKGRFTISKDNAKNTLYLQMNSLKPEDTGMYYCAAEFADCSSNYFLPPGAVRYWGQGTQVTVSSASHHHHHH
3 | 0.48 Abs 630 | 0.39 Abs 630 | IL10R binding molecule of SEQ ID NO: 312 (bispecific antibody) QVQLQESGGGSVQAGGSLRLSCAASGYTYSSYCMGWFRQAPGKEREGVAHIDSDGSTSYADSVKGRFTISKDNAKNTLYLQMNSLKPEDTAMYYCAADPIPGPGYCDGGPNKYWGQGTQVTVSSGGGSQVQLQESGGGSVQAGGSLRLSCAASRYLYSIDYMAWFRQSPGKEREPVAVIYTASGATFYPDSVKGRFTISQDNAKMTVYLQMNSLKSEDTAMYYCAAVRKTDSYLFDAQSFTYWGQGTQVTVSSASHHHHHH
4 | 0.51 Abs 630 | 0.44 Abs 630 | IL10R binding molecule of SEQ ID NO: 310 (bispecific antibody) QVQLQESGGGSVQAGGSLRLSCAASGYTYSSGCMGWFRQAPGKEREAVAAINSDGSTSYADSVKGRFTISKDNAKNTLYLQMNSLKPEDTAMYYCAAEPYCSGGYPRWSVAEFGYWGQGTQVTVSSGGGSQVQLQESGGGSVQAGGSLRLSCGASGYTYSSYCMGWFRQVPGKEREGVAVIDSDGSTSYADSVKGRFTISKDNGKNTLYLQMNSLKPEDTAMYYCAADLGHYRPPCGVLYLGMDYWGKGTQVTVSSASHHHHHH
5 | 0.48 Abs 630 | 0.39 Abs 630 | IL10R binding molecule of SEQ ID NO: 308 (bispecific antibody) QVQLQESGGGSVQAGGSLRLSCAASGYTYSSGCMGWFRQAPGKEREAVAAINSDGSTSYADSVKGRFTISKDNAKNTLYLQMNSLKPEDTAMYYCAAEPYCSGGYPRWSVAEFGYWGQGTQVTVSSGGGSQVQLQESGGGSVQAGGSLRLSCAVSGYAYSTYCMGWFRQAPGKEREGVAAIDSGGSTSYADSVKGRFTISKDNAKNTLYLRMNSLKPEDTAMYYCAAVPPPPDGGSCLFLGPEIKVSKADFRYWGQGTQVTVSSASHHHHHH
6 | 1.96 Abs 630 | 2.06 Abs 630 | IL10R binding molecule of SEQ ID NO: 304 (bispecific antibody) QVQLQESGGGSVQAGGSLRLSCAASGYSNCSYDMTWYRQAPGKEREFVSAIHSDGSTRYADSVKGRFFISQDNAKNTVYLQMNSLKPEDTAMYYCKTDPLHCRAHGGSWYSVRANYWGQGTQVTVSSGGGSQVQLQESGGGSVQTGGSLRLSCAASGYTYLRGCMGWFRQAPGKEREGVAVMDVVGDRRSYIDSVKGRFTISRDNAANSVYLQMDNLKPEDTAMYYCTAGPNCVGWRSGLDYWGQGTQVTVSSASHHHHHH
7 | 1.85 Abs 630 | 1.13 Abs 630 | IL10R binding molecule of SEQ ID NO: 259 (bispecific antibody) QVQLQESGGGSVQAGGSLRLSCAASRYLYSIDYMAWFRQSPGKEREPVAVIYTASGATFYPDSVKGRFTISQDNAKMTVYLQMNSLKSEDTAMYYCAAVRKTDSYLFDAQSFTYWGQGTQVTVSSGGGSQVQLQESGGGSVQAGGSLRLSCTVSRYTASVNYMGWFRQAPGKEREGVATIFTGAGTTYYANSVKGRFTISRDNAKNTAYLQMNSLKPEDTAIYYCAVDFRGGLLYRPAYEYTYRGQGTQVTVSSASHHHHHH
8 | 0.69 Abs 630 | 0.49 Abs 630 | IL10R binding molecule of SEQ ID NO: 306 (bispecific antibody) QVQLQESGGGSVQAGGSLRLSCAASGYTYSSGCMGWFRQAPGKEREAVAAINSDGSTSYADSVKGRFTISKDNAKNTLYLQMNSLKPEDTAMYYCAAEPYCSGGYPRWSVAEFGYWGQGTQVTVSSGGGSQVQLQESGGGSVQAGGSLRLSCAASRFTYSSYCMGWFRQAPGKEREGVASIDSDGSTSYTDSVKGRFTISKDNAKNTLYLQMNSLKPEDTAMYYCALDLMSTVVPGFCGFLLSAGMDYWGKGTQVTVSSASHHHHHH
9 | 0.44 Abs 630 | 0.34 Abs 630 | IL10R binding molecule of SEQ ID NO: 307 (bispecific antibody) QVQLQESGGGSVQAGGSLRLSCAASGYTYSSGCMGWFRQAPGKEREAVAAINSDGSTSYADSVKGRFTISKDNAKNTLYLQMNSLKPEDTAMYYCAAEPYCSGGYPRWSVAEFGYWGQGTQVTVSSGGGSQVQLQESGGGSVQAGGSLRLSCAASGYTYSMYCMGWFRQAPGKEREGVAQINSDGSTSYADSVKGRFTISKDNAKNTLYLQMNSLKPEDTAMYYCAADSRVYGGSWYERLCGPYTYEYNYWGQGTQVTVSSASHHHHHH
10 | 2.08 Abs 630 | 2.04 Abs 630 | wild-type human IL-10 (Recombinant Animal-Free Human IL-10, Shenandoah Biotechnology) (ligand) SPGQGTQSENSCTHFPGNLPNMLRDLRDAFSRVKTFFQMKDQLDNLLLKESLLEDFKGYLGCQALSEMIQFYLEEVMPQAENQDPDIKAHVNSLGENLKTLRLRLRRCHRFLPCENKSKAVEQVKNAFNKLQEKGIYKAMSEFDIFINYIEAYMTMKIRN
11 | 0.45 Abs 630 | 0.37 Abs 630 | IL10R binding molecule of SEQ ID NO: 309 (bispecific antibody) QVQLQESGGGSVQAGGSLRLSCAASGYTYSSGCMGWFRQAPGKEREAVAAINSDGSTSYADSVKGRFTISKDNAKNTLYLQMNSLKPEDTAMYYCAAEPYCSGGYPRWSVAEFGYWGQGTQVTVSSGGGSQVQLQESGGGSVQAGGSLRLSCTVSGYTYSSNCMGWFRQAPGKEREGVATIYTGGGNTYYADSVKGRFTISQDNAKNTVYLQMNNLKPEDTAMYYCAAEPLSRVYGGSCPTPTFDYWGQGTQVTVSSASHHHHHH
12 | 0.48 Abs 630 | 0.4 Abs 630 | IL10R binding molecule of SEQ ID NO: 311 (bispecific antibody) QVQLQESGGGSVQAGGSLRLSCAASGYTYSSGCMGWFRQAPGKEREAVAAINSDGSTSYADSVKGRFTISKDNAKNTLYLQMNSLKPEDTAMYYCAAEPYCSGGYPRWSVAEFGYWGQGTQVTVSSGGGSQVQLQESGGGSVQAGGSLRLSCAASGYSNCSYDMTWYRQAPGKEREFVSAIHSDGSTRYADSVKGRFFISQDNAKNTVYLQMNSLKPEDTAMYYCKTDPLHCRAHGGSWYSVRANYWGQGTQVTVSSASHHHHHH
13 | 0.47 Abs 630 | 0.39 Abs 630 | IL10R binding molecule of SEQ ID NO: 313 (bispecific antibody) QVQLQESGGGSVQAGGSLRLSCAASGYTYSSYCMGWFRQAPGKEREGVAHIDSDGSTSYADSVKGRFTISKDNAKNTLYLQMNSLKPEDTAMYYCAADPIPGPGYCDGGPNKYWGQGTQVTVSSGGGSQVQLQESGGGSVQAGGSLRLSCAASRFTYSSYCMGWFRQAPGKEREGVASIDSDGSTSYTDSVKGRFTISKDNAKNTLYLQMNSLKPEDTAMYYCALDLMSTVVPGFCGFLLSAGMDYWGKGTQVTVSSASHHHHHH
